Laboratory results reported in US20030108549A1 (GENETICS INSTITUTE, published 2003).

Target: T1, human MU-1 Ig fusion protein (human, UniProt Q9HBE5 20-235)
T1 construct: also called MUFc; human Ig fusion protein; not shown: Ig portion
Assay: Biacore; MU-1 Ig fusion immobilized on chip
Method: Both human and murine Ig fusion proteins were constructed and immobilized on Biacore chips in an effort to identify the ligand for MU-1. A variety of cell culture conditioned media as well as a panel of known cytokines were evaluated for binding to MU-1. Some cytokines were also tested in combination with other receptor chains in the family to consider the possibility that MU-1 may require a second receptor chain for ligand binding. The following cytokines were tested and found to be negative for MU-1 binding: mIL-2, hIL-2, hIL-i5, mIL-7, TSLP, TSLP+IL7, TSLP+IL7R, TSLP+IL7g, TSLP+IL-2, TSLP+1L2+IL2Rbeta, IL2Rbeta, IL2Rgamma, IL7R, IL2+2Rbeta, IL2+2Rgamma, IL1 5+IL2Rbeta, 1L15+2Rgamma, 1IL7+2Rgamma, IL2+IL7R, IL1 5+IL7R, IL7+IL7R. Known receptors have been immobilized as well and tested for MUFc binding with negative results. IL-IS will bind to IL2Rb but not IL2Rg or MUFc.

T1 sequence (Q9HBE5 20-235): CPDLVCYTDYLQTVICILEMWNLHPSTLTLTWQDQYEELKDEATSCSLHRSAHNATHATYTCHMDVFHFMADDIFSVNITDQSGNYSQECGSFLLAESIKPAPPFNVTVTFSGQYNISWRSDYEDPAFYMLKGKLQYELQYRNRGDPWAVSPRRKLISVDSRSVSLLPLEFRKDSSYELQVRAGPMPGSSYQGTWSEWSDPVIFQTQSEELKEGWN

B1: mIL-7 (ligand, mouse, UniProt P10168 26-154, looked up)
chain: ECHIKDKEGKAYESVLMISIDELDKMTGTDSNCPNNEPNFFRKHVCDDTKEAAFLNRAARKLKQFLKMNISEEFNVHLLTVSQGTQTLVNCTSKEEKNVKEQKKNDACFLKRLLREIKTCWNKILKGSI
B1: no binding.

B2: mIL-2 (ligand, mouse, UniProt P04351 21-169, looked up)
chain: APTSSSTSSSTAEAQQQQQQQQQQQQHLEQLLMDLQELLSRMENYRNLKLPRMLTFKFYLPKQATELKDLQCLEDELGPLRHVLDLTQSKSFQLEDAENFISNIRVTVVKLKGSDNTFECQFDDESATVVDFLRRWIAFCQSIISTSPQ
B2: no binding.
